Results from patent US11112401B2, “Method for determining the cell mediated immune competence of a subject” (Oxford Immunotec Limited, priority 2016, dated 2021).

Test system: peripheral blood mononuclear cells (PBMCs)
Assay: ELISPOT screening of healthy donor samples with 23 commercially available peptide pools
Format: cell-based, human
Settings: healthy donors, responsive donors/donors tested in brackets

B1: EBNA-3a Protein: Epstein barr nuclear antigen-3A as protein (number of peptides N/A) (protein, UniProt P12977 1-944, looked up)
Epstein-Barr nuclear antigen 3: MDKDRPGPPALDDNMEEEVPSTSVVQEQVSAGDWENVLIELSDSSSEKEAEDAHLEPAQKGTKRKRVDHDAGGSAPARPMLPPQPDLPGREAILRRFPLDLRTLLQAIGAAATRIDTRAIDQFFGSQISNTEMYIMYAMAIRQAIRDRRRNPASRRDQAKWRLQTLAAGWPMGYQAYSSWMYSYTDHQTTPTFVHLQATLGCTGGRRCHVTFSAGTFKLPRCTPGDRQWLYVQSSVGNIVQSCNPRYSIFFDYMAIHRSLTKIWEEVLTPDQRVSFMEFLGFLQRTDLSYIKSFVSDALGTTSIQTPWIDDNPSTETAQAWNAGFLRGRAYGIDLLRTEGEHVEGATGETREESEDTESDGDDEDLPCIVSRGGPKVKRPPIFIRRLHRLLLMRAGKRTEQGKEVLEKARGSTYGTPRPPVPKPRPEVPQSDETATSHGSAQVPEPPTIHLAAQGMAYPLHEQHGMAPCPVAQAPPTPLPPVSPGDQLPGVFSDGRVACAPVPAPAGPIVRPWEPSLTQAAGQAFAPVRPQHMPVEPVPVPTVALERPVYPKPVRPAPPKIAMQGPGETSGIRRARERWRPAPWTPNPPRSPSQMSVRDRLARLRAEAQVKQASVEVQPPQLTQVSPQQPMEGPLVPEQQMFPGAPFSQVADVVRAPGVPAMQPQYFDLPLIQPISQGAPVAPLRASMGPVPPVPATQPQYFDIPLTEPINQGASAAHFLPQQPMEGPLVPEQWMFPGAALSQSVRPGVAQSQYFDLPLTQPINHGAPAAHFLHQPPMEGPWVPEQWMFQGAPPSQGTDVVQHQLDALGYTLHGLNHPGVPVSPAVNQYHLSQAAFGLPIDEDESGEGSDTSEPCEALDLSIHGRPCPQAPEWPVQEEGGQDATEVLDLSIHGRPRPRTPEWPVQGEGGQNVTGPETRRVVVSAVVHMCQDDEFPDLQDPPDEA
Percentage Responsive (10 spot arbitrary cut off): 13% (19/137
